Test results: article PMC4091690, “A Broadly Conserved G-Protein-Coupled Receptor Kinase Phosphorylation Mechanism Controls Drosophila Smoothened Activity” (PLoS Genetics, 2014)

B1: Smo^core (Drosophila Smoothened amino acids 1-663), C-terminally tagged with GFP10 S634 [Drosophila] / Costal-2 (Cos2), C-terminally tagged with Renilla luciferase II … (parent)
chain 1: MEIPIQVAVRIFPHRELKDLLRSFGPTEPKKDAQAVDEGADSKDSEAQVPAAEKDNPSISETDPNGNAEQDSAADSKTIPDANGNDSGQKDYPDSAYCVQAIPISASALGLPSALPGGDPMDSIAAGLIQVGPHTVPVTHALPSSSSQEQVYHQTVFPLITLFLEGFDASVVTYGQRGQGKSYTLYGNVQDPTLTDSTEGVVQLCVRDIFSHISLHPERTYAINVGFVEICGGDVCDLLGMGNIHCTNVDAVFHWLQVGLSARQSLPAHTLFTLTLEQQWVSKEGLLQHRLSTASFSDLCGTERCGDQPPGRPLDAGLCMLEQVISTLTDPGLMYGVNGNIPYGQTTLTTLLKDSFGGRAQTLVILCVSPLEEHLPETLGNLQFAFKVQCVRNFVIMNTYSDDNTMIVQPAEPVPESNSSAGPLSQAGPGDNFGLQFAASQWSKLVTNAEGLFSKLIDSKLITEVEKEQIEEWLFLKQECEECLSSTEAMRQQKQLVPILEAEEPEDVNSEAANSESPNSDNENDTDNESHRPDLDDKIESLMEEFRDKTDALILEKHAEYLSKHPKAVMQSQDREIEAQPPEENGDDRKVSIGSRRRSVQPGASLSTAELAMLNRVASQQPPPPIDPESVVDPLESSSGEGIRQAALAAAAATAPIEQLQKKLRKLVAEIEGKQRQLREIEETIQVKQNIIAELVKNSDTRSHAKQRFHKKRAKLEAECDKAKKQLGKALVQGRDQSEIERWTTIIGHLERRLEDLSSMKHIAGESGQKVKKLQQSVGESRKQADDLQKKLRKECKLRCQMEAELAKLRESRETGKELVKAQGSPEQQGRQLKAVQARITHLNHILREKSDNLEEQPGPEQQETLRHEIRNLRGTRDLLLEERCHLDRKLKRDKVLTQKEERKLLECDEAIEAIDAAIEFKNEMITGHRSIDTSDRIQREKGEQMLMARLNRLSTEEMRTLLYKYFTKVIDLRDSSRKLELQLVQLERERDAWEWKERVLSNAVRQARLEGERNAVLLQRQHEMKLTLMLRHMAEETSASSASYGERALAPACVAPPVQASSDFDYDHFYKGGGNPSKALIKAPKPMPTGSALDKYKDKEQRSGRNIFAKFHVLTRYASAAAAGSSGSTAEESTALIESTTTATATTTSTTTTGAVGKVKDKALVSFRPEQLKRLMPAPTATKVTRQKNKIIIQDASRRN
chain 2: SSAKFGSTTPASAQQSDVELEPINGTLNYRLYAKKGRDDKPWFDGLDSRHIQCVRRARCYPTSNATNTCFGSKLPYELSSLDLTDFHTEKELNDKLNDYYALKHVPKCWAAIQPFLCAVFKPKCEKINGEDMVYLPSYEMCRITMEPCRILYNTTFFPKFLRCNETLFPTKCTNGARGMKFNGTGQCLSPLVPTDTSASYYPGIEGCGVRCKDPLYTDDEHRQIHKLIGWAGSICLLSNLFVVSTFFIDWKNANKYPAVIVFYINLCFLIACVGWLLQFTSGSREDIVCRKDGTLRHSEPTAGENLSCIVIFVLVYYFLTAGMVWFVFLTYAWHWRAMGHVQDRIDKKGSYFHLVAWSLPLVLTITTMAFSEVDGNSIVGICFVGYINHSMRAGLLLGPLCGVILIGGYFITRGMVMLFGLKHFANDIKSTSASNKIHLIIMRMGVCALLTLVFILVAIACHVTEFRHADEWAQSFRQFIICKISSVFEEKSSCRIENRPSVGVLQLHLLCLFSSGIVMSTWCWTPSSIETWKRYIRKKCGKEVVEEVKMPKHKVIAQTWAKRKDFEDKGRLSITLYNTHTDPVGLNFDVNDLNSSETNDISSTWAAYLPQCVKRRMALTGAATGNSSSHGP

Variants of: B1
Assay: BRET
Settings: with Costal-2 (Cos2), S2 cells treated with smo 3′UTR dsRNA to deplete endogenous Smo, parent: 100, read off a plot

Row | Variant | response
1 | chain 2 S573A T575A T579A T581A S595A S596A T598A S602A S603A T604A T620A T624A S627A S628A S629A | 30
